Laboratory results: publication PMC2132719

Biological target: NLS-HSA (SV-40 large T antigen NLS peptide coupled to human serum albumin) (human | SV-40) (UniProt P02768)
Assay: pull-down

percent of the protein in the extract bound: < 1%
Substance: Xenopus Nup62 (natural protein)
